{"source": "patent US20150259426A1", "about": "(Novartis, published 2015)", "binders": {"B1": {"name": "10F1 tetra (tetravalent anti-DR5 NB construct) (other)", "chain": "EVQLVESGGGLVQPGGSLRLSCAASGFTFSRYWMYWVRQAPGKGLEWVSAINSGGGDTYYRDSVRGRFTISRDNFKNTLYLQMNSLKSEDTAVYYCAKAEGPPTFSLIRTMTVDPGAQGTQVTVSSGGGGSGGGGSGGGGSGGGGSGGGGSGGGGSGGGGSEVQLVESGGGLVQPGGSLRLSCAASGFTFSRYWMYWVRQAPGKGLEWVSAINSGGGDTYYRDSVRGRFTISRDNFKNTLYLQMNSLKSEDTAVYYCAKAEGPPTFSLIRTMTVDPGAQGTQVTVSSGGGGSGGGGSGGGGSGGGGSGGGGSGGGGSGGGGSEVQLVESGGGLVQPGGSLRLSCAASGFTFSRYWMYWVRQAPGKGLEWVSAINSGGGDTYYRDSVRGRFTISRDNFKNTLYLQMNSLKSEDTAVYYCAKAEGPPTFSLIRTMTVDPGAQGTQVTVSSGGGGSGGGGSGGGGSGGGGSGGGGSGGGGSGGGGSEVQLVESGGGLVQPGGSLRLSCAASGFTFSRYWMYWVRQAPGKGLEWVSAINSGGGDTYYRDSVRGRFTISRDNFKNTLYLQMNSLKSEDTAVYYCAKAEGPPTFSLIRTMTVDPGAQGTQVTVSS", "notes": "four VHH units in one chain joined by GlySer linkers; not shown: C-terminal c-myc/His6 tag from vector pAX51"}, "B2": {"name": "11H6 (monomeric anti-DR5 NB construct) (VHH)", "VHH": "EVQLVESGGGLVQPGGSLRLSCAASGTFDKINNMGWYRQAPGKQRDLVAQITPGGITDYADSVKGRFTISRDNAKDTMYLQMNSLKPEDTAVYFCNAEILKRAYIDVYVNYWGQGTQVTVSS", "notes": "llama VHH; periplasmic extract or purified monovalent material from E. coli; also called 11H6 parent; wild type 11H6; not shown: C-terminal c-myc tag and (His)6 tag coded by the vector"}, "B3": {"name": "11H6 hu, pAX100-11H6 (monomeric NB construct for crystallography) (VHH)", "VHH": "B2 VHH with V5L, A74S, D76N, M78L, K86R, F94Y, Q117L", "notes": "the complex with DR5-54 was treated with trypsin before crystallization"}, "B4": {"name": "11H6-hu (monovalent humanized variant of 11H6) (VHH)", "VHH": "B2 VHH with V5L, A74S, D76N, M78L, K86R, F94Y, Q117L", "notes": "purified monovalent material"}, "B5": {"name": "4E6 hu, pAX111-4E6 (monomeric NB construct for crystallography) (VHH)", "VHH": "EVQLLESGGGLVQPGGSLRLSCAASGRTFGSIRVGWFRQAPGKGREFVSAINRNDGTTYYADSVKGRFTISRDNSKNTVYLQMNSLRPEDTAVYYCAAGLQYNRAADRVPVGAVYWGQGTLVTVSS"}, "B6": {"name": "4E6-hx (monovalent; humanized FR regions of 4E6-Hu with the CDR3 of 4E6), produced in E. coli (VHH)", "VHH": "B5 VHH with A105S"}}, "key": {"[1]": {"target": "T1, cell-bound human DR5 (Colo205 and other human cell lines) (human, UniProt O14763 56-440)", "assay": "cell-based or functional assay"}, "[2]": {"target": "T1, cell-bound human DR5 (Colo205 and other …)", "assay": "cell-based or functional assay", "remark": "listed apart in the source"}, "[3]": {"target": "T2, short (182 amino acids) human DR5-Fc fusion protein (R&D Systems, catalogue #631-T2/CF) (human, UniProt O14763 56-210)", "T2 construct": "bought; not shown: Fc part of the bought fusion protein; not described", "assay": "SPR (Biacore), CM5 chip coated with human DR5-Fc, 1 to 100 nM NB construct"}, "[4]": {"target": "T3, cynomolgus DR5-Fc fusion protein (cyno DR5 amino acids 56 to 213 fused with human IgG1 Fc) (cynomolgus; human)", "assay": "SPR (Biacore), CM5 chip coated with cynomolgus DR5-Fc, 1 to 100 nM NB construct"}, "[5]": {"target": "cynomolgus DR5 (construct used not stated) (cynomolgus)", "assay": "SPR kinetics, cynomolgus DR5"}, "[6]": {"target": "T1, cell-bound human DR5 (Colo205 and other …)", "assay": "FACS, periplasmic extract on Colo205 cells, anti-myc detection"}, "[7]": {"target": "T3, cynomolgus DR5-Fc fusion protein (cyno …)", "assay": "ELISA, periplasmic extract, plate coated with cynomolgus DR5-Fc, anti-myc detection"}, "[8]": {"target": "T4, cell-bound cynomolgus DR5 (CHO-K1 cells transfected with the full length cynoDR5 gene) (cynomolgus)", "T4 construct": "whole, on cells", "assay": "FACS, periplasmic extract on CHO-K1 cells expressing cynomolgus DR5, anti-myc detection"}, "[9]": {"target": "T5, DR5-54 (human DR5 residues 54 to 183, gp67DR5a54-s183-PH) (human, UniProt O14763 54-183)", "T5 construct": "expressed in SF9 cells, cleaved with PreScission protease; the complex with 11H6 was treated with trypsin before crystallization", "assay": "complex isolated by gel filtration, then crystallized"}, "[10]": {"target": "T6, DR5-61 (human DR5 residues 61 to 183, gp67DR5l61-s183-PH) (human)", "T6 construct": "expressed in SF9 cells, cleaved with PreScission protease", "T6 chain": "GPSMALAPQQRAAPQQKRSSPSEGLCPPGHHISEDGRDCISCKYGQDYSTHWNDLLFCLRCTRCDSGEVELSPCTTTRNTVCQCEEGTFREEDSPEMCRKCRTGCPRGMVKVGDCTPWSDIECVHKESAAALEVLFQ", "assay": "complex isolated by gel filtration, then crystallized"}, "[11]": {"target": "cynomolgus DR5 (construct used not stated) (cynomolgus)", "assay": "SPR kinetics (Biacore), cynomolgus DR5"}, "[12]": {"target": "T1, cell-bound human DR5 (Colo205 and other …)", "assay": "FACS saturation binding, apparent KD, cell-bound human DR5"}, "[13]": {"target": "T4, cell-bound cynomolgus DR5 (CHO-K1 cells …)", "assay": "FACS saturation binding, apparent KD, cell-bound cynomolgus DR5"}}, "note": "Where a chain is given by its changes, count along the chain named."}
{"binder": "B1", "values": [{"measurement": "IC50, cell survival, 184A1", "setting": "[1]", "value": "≥ 20", "unit": "nM"}, {"measurement": "IC50, cell survival, A549", "setting": "[1]", "value": "≥ 20", "unit": "nM"}, {"measurement": "IC50, cell survival, ARPE-19", "setting": "[1]", "value": "≥ 20", "unit": "nM"}, {"measurement": "IC50, cell survival, BxPC-3", "setting": "[1]", "value": 0.003, "unit": "nM"}, {"measurement": "IC50, cell survival, Colo205", "setting": "[1]", "value": 0.002, "unit": "nM"}, {"measurement": "IC50, cell survival, H226", "setting": "[1]", "value": 0.024, "unit": "nM"}, {"measurement": "IC50, cell survival, H2052", "setting": "[1]", "value": 0.004, "unit": "nM"}, {"measurement": "IC50, cell survival, H2122", "setting": "[1]", "value": 0.001, "unit": "nM"}, {"measurement": "IC50, cell survival, HAAE-1", "setting": "[1]", "value": "≥ 20", "unit": "nM"}, {"measurement": "IC50, cell survival, Huvec", "setting": "[1]", "value": "≥ 20", "unit": "nM"}, {"measurement": "IC50, cell survival, Jurkat", "setting": "[1]", "value": 0.003, "unit": "nM"}, {"measurement": "IC50, cell survival, M30", "setting": "[1]", "value": "≥ 20", "unit": "nM"}, {"measurement": "IC50, cell survival, Malme-3", "setting": "[1]", "value": "≥ 20", "unit": "nM"}, {"measurement": "IC50, cell survival, MiaPaCa-2", "setting": "[1]", "value": 0.028, "unit": "nM"}, {"measurement": "IC50, cell survival, Molt4", "setting": "[1]", "value": 0.002, "unit": "nM"}, {"measurement": "IC50, cell survival, Panc-1", "setting": "[1]", "value": 0.009, "unit": "nM"}, {"measurement": "IC50, cell survival, WI-38", "setting": "[1]", "value": "≥ 20", "unit": "nM"}, {"measurement": "EC50, caspase 3/7 in Colo205 tumor after a single dose in mice, indirect response model", "setting": "[2]", "value": 0.365, "unit": "ng/mg tissue"}, {"measurement": "Kd", "setting": "[3]", "value": 0.0039, "unit": "nM"}, {"measurement": "Kd", "setting": "[4]", "value": 0.022, "unit": "nM"}]}
{"binder": "B2", "values": [{"measurement": "Kd", "setting": "[5]", "value": 320, "unit": "nM"}, {"measurement": "mean count fluorescence", "setting": "[6]", "value": 723}, {"measurement": "Kd", "setting": "[4]", "value": 9200, "unit": "nM"}, {"measurement": "ABS405 nm", "setting": "[7]", "value": 0.133, "unit": "ABS405 nm"}, {"measurement": "mean count fluorescence", "setting": "[8]", "value": 292}]}
{"binder": "B3", "values": [{"measurement": "binding result", "setting": "[9]", "value": "binds"}]}
{"binder": "B4", "values": [{"measurement": "Kd", "setting": "[5]", "value": 170, "unit": "nM"}]}
{"binder": "B5", "values": [{"measurement": "binding result", "setting": "[10]", "value": "binds"}]}
{"binder": "B6", "values": [{"measurement": "Kd", "setting": "[11]", "value": 3.4, "unit": "nM"}, {"measurement": "Kd", "setting": "[12]", "value": 0.34, "unit": "nM"}, {"measurement": "Kd", "setting": "[13]", "value": 7.1, "unit": "nM"}]}
